Consider 9 molecules from US20260102528A1 (University of California, published 2026).

By Kd is commonly meant a measure of binding affinity in units of concentration.

The target of assay [1] is T1, V7-AMG510 HLA-A*03:01 MHC-I complex (human).
T1 construct: also called V7-Sotorasib A*03:01; V7-510 A*03:01
The assay is described as follows: competition ELISA: the concentration is that of free AMG510 (small molecule, the varied competitor) preincubated with the Fab; read-out is Fab binding to streptavidin-captured V7-AMG510 HLA-A*03:01, anti-myc IgG-HRP; legend calls the values approximate. Background: In an ELISA, binding on a coated surface is turned into a signal by an enzyme label.
Protocol: FIG. 3A-3D show characterizations of six V7-AMG510 A*03:01-reactive Fabs. […] Approximate IC₅₀ values for free drug (AMG510) competition for each clone are reported, as derived from FIG. 3C. […] Recombinant V7-AMG510 HLA-A*03:01 was captured via streptavidin in an ELISA and increasing amounts of free AMG510 preincubated with the indicated clones in Fab format before detection of Fab binding with an anti-myc secondary IgG-HRP conjugate. Data are presented as the mean #standard deviation of three replicates. […] Data are presented as the mean±standard deviation of four replicates.

The target in assay [2] is T1, V7-AMG510 HLA-A*03:01 MHC-I complex. The assay is described as follows: BLI (Octet), derived from FIG. 3A; biotinylated MHC-I complex on streptavidin biosensor. (Biolayer interferometry detects binding as a change in optical thickness at a sensor tip.)
Protocol: (§1) Kinetic measurements via Octet. Kinetic constants for Fabs were determined using an Octet RED384 instrument (ForteBio). For screens, a single concentration of Fab (100 nM) was tested, and for kinetic characterization Fabs were tested at several concentrations, as noted in the relevant figure. Biotinylated peptides (1 μM in 1% BSA/PBS) or biotinylated MHC-I complexes (200 nM in 1% BSA/PBS) were immobilized on ForteBio streptavidin SA biosensors for all assays. All measurements were performed in 1% BSA PBS pH 7.4 in 384 well plates. Data were analyzed using a 1:1 interaction model with global fitting on the ForteBio data analysis software (9.0.0.6). KD values were determined by the fitting of either equilibrium or maximum response (nm) as a function of Fab concentration.
Assay [3] shares this target. The assay is described as follows: BLI (Octet), Fab on immobilised biotinylated pMHC.
Protocol: as §1
The target in assay [4] is T2, V7-ARS1620 HLA-A*03:01 MHC-I complex (human).
T2 construct: also called V7-ARS HLA-A*03:01; V7-ARS A*03:01
The assay is described as follows: competition ELISA: the concentration is that of free ARS1620 (small molecule, the varied competitor); read-out is P2B2 IgG-HRP binding to W6/32-captured A*03:01/V7-ARS.
Protocol: The complexes were captured by the conformation-specific antibody W6/32 and detected by the ARS1620-specific antibody (P1A4) in the presence of various amounts of free ARS1620. Data is presented as mean±standard deviation for four replicates.
MHC-I refolding and purification. […] Refolding reactions were performed with various peptides of interest in refolding buffer (100 mM Tris pH 8.0, 400 mM L-Arginine.HCl, 5 mM reduced glutathione, 0.5 mM oxidized glutathione, 2 mM EDTA, and complete protease inhibitor cocktail (Roche)). Briefly, B2m (2 μM) and peptide (10 μM) were diluted into refolding buffer, then denatured heavy chain was added to 1 μM. Reactions proceeded at 10° C. overnight for ELISA assays. MHC-I ELISAs. Black, 384 well Nunc Maxisorp plates were coated with 50 μL of the anti-heavy chain antibody W6/32 (Bio X Cell Cat #BE0079, RRID:AB_1107730) at 5 μg/mL in PBS overnight. The plate was washed twice with PBS (100 μL) and blocked with 3% BSA PBS (120 μL) for 1 hour at room temperature. Plates were then washed three times with 0.05% Tween-20 PBS (PBST) (100 μL). Refolded MHC complexes (crude or FPLC purified) were diluted 10× into 1% BSA PBS and 50 μL added to wells in quadruplicate. Plates were incubated at room temperature with shaking for 1 hour, then washed three times with 1% BSA PBS (100 μL).

The target of assay [5] is T3, K5-ARS1620 HLA-A*02:01 MHC-I complex (human).
T3 construct: also called K5-ARS HLA-A*02:01
Nature of the assay: BLI (Octet), Fab on immobilised biotinylated pMHC.
Protocol: as §1

The target in assay [6] is T2, V7-ARS1620 HLA-A*03:01 MHC-I complex. Nature of the assay: BLI (Octet), Fab on immobilised biotinylated pMHC.
Protocol: as §1
Assay [7] has as its target T1, V7-AMG510 HLA-A*03:01 MHC-I complex. Nature of the assay: BLI, Fab on pMHC.
Protocol: as §1

B1: P2B6 Fab (Fab, V domains shown)
VH: QLQLQESGPGLVKPSETLSLTCTVSGVSISSRSDHWGWVRQPPGKGLEWIGSISYSGSTYYNPSLKSRVTISVDTSKNQLSLKLTSVTAADTAVYYCARRALAQQLVMDVWGQGTTVTVSS
VL: DVVMTQSPLSLPVTPGEPASISCRSSQSLLRNNGYNYLDWYLQKPGQSPQLLIYLGSNRASGVPDRFSGSGSGRDFTLKISRVEAEDVGIYYCMQGAHWPYTFGQGTNLEISR
B1: the “AMG510 IC50” value in assay [1] was roughly 74 nM. In assay [2], this molecule came in with a Kd of 29 nM.

B2: P2C1 Fab (Fab, V domains shown)
VH: EVQLVQSGAEVKKPGSSVKVSCKASGGTFSSYAISWVRQAPGQGLEWMGIINPSGGSTSYAQKFQGRVTMTRDTSTSTVYMELSSLRSEDTAVYYCARDLGTIFEANGAFDIWGQGTMVTVSS
VL: QSALTQPASVSGSPGQSITISCTGTSSDVGSYNLVSWYQQHPGKAPKLMIYDVSNRPSGVSNRFSGSKSGNTASLTISGLQAEDEADYYCSSYTSSSTLVFGTGTNVTVLG
On to B2, for which the “AMG510 IC50” value in assay [1] is roughly 1500 nM. Moreover, the Kd in assay [3] is 230 nM.

B3: P1E5 Fab (Fab, V domains shown)
VH: QVQLQESGGGVVQPGRSLRLSCAASGFTFSSYEMNWVRQAPGKGLEWVAVISYDGSNKYYADSVKGRFTISRDNSKNTLYLQMNSLRAEDTAVYYCARDAYSGWFDYWGQGTLVTVSS
VL: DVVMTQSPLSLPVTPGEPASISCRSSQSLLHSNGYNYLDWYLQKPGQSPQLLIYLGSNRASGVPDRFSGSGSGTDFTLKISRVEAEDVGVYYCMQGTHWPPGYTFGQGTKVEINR
Take B3: the “AMG510 IC50” value in assay [1] is roughly 200 nM. The same molecule returned a Kd in assay [3] of 13 nM.

B4: P1H4 Fab (Fab, V domains shown)
VH: EVQLVQSGAEVKKPGSSVKVSCKASGGTFSSYAISWVRQAPGQGLEWMGGIIPIFGTANYAQKFQGRVTITADKSTSTAYMELSSLRSEDTAVYYCAFNYYDSSGYSDYWGQGTLVTVSS
VL: ETTLTQSPGTLSLSPGERATLSCRASQSVSSSYLAWYQQKPGQAPRLLIYGASSRATGIPDRFSGSGSGTDFTLTISRLEPGDFAVYYCQQYGTSPITFGQGTRLEIKR
Take B4: the “AMG510 IC50” value in assay [1] is roughly 930 nM. The molecule further returned a Kd in assay [2] of 59 nM.

B5: P2B2 IgG-HRP conjugate (antibody, V domains shown)
VH: QVQLVESGGGVVQPGRYLRLSCATSGFTFSNYAMHWVRQAPGKGLEWVALISYDGSNKYYADSVKGRFTISRDKSTNALYLQMNSLRVEDTAVYYCARERVPWDYYGMDVWGQGTTVTVSS
VL: QSVVTQPPSVSAAPGHKVSISCSGSNSNIGHNYVSWYQQFPGTAPKLLVYRDDNRPSEVPDRFSGSKSGTSATLGITGLQTADEADYYCGTWDSTLQHVVFGGGTKLTVL
notes: also called V7-ARS-HLA-A*03:01-specific antibody P2B2
As to B5, the “IC50 of free ARS1620” value in assay [4] is 445 nM.

B6: P2B2 Fab (Fab, V domains shown)
VH: B5 VH
VL: QSVVTQPPSVSAAPGHKVSISCSGSNSNIGHNYVSWYQQFPGTAPKLLVYRDDNRPSEVPDRFSGSKSGTSATLGITGLQTADEADYYCGTWDSTLQHVVFGGGTKLTVLS
notes: also called P282
B6: the values for the Kd in assay [5] and in assay [6] were 470 nM and 43 nM, respectively.

B7: P2E3 Fab (Fab, V domains shown)
VH: QVQLQESGPGLVKPSETLSLTCTVSGGSVSSSSYYWGWIRQPPGEGLEWIGSIYYSGSTYYNPSLKSRVTISVDTSKNQFSLKLSSVTAADTAVYYCATRLRGSFDYWGQGTLVTVSS
VL: DVVMTQSPLSLPVTPGEAASISCRSSQSLLHSNGYTYLDWYLQKPGQSPRLLIYSGSNRASGVPDRFSGSGSGTDFTLKISRVEAEDVGVYYCMQGTHWPYTFGQGTRLEIKR
For B7, in assay [2], the affinity, expressed as Kd, was 68 nM.

B8: P1C10 Fab (Fab, V domains shown)
VH: QVQLVQSGGGLVKPGGSLRLSCAASGFTFSSYSMNWVRQAPGKGLEWVSYISSRGRTIYYADSVKGRFTISRDNAKNSLYLQMNSLRAEDTAVYYCVRDVPGVWGFAYWGQGTLVTVSS
VL: QSVVTQPPSVSAAPGQKVTISCSGSSSNIGNHYVSWYQQLPGTAPKLLIYDDGKRPSGIPDRFSGSKSGTSATLGITGLQTGDEADYYCATWDNSLSVVLFGGGTKLTVLG
Turning to B8, the Kd was determined as 320 nM in assay [5] and 59 nM in assay [6].

B9: P1B7 Fab (Fab, V domains shown)
VH: QVQLQQSGPGLVKPSQTLSLTCAISGDSVSSNSVAWNWIRQSPSRGLEWLGRTYYRSKWYSDYAVSVKSRITINPDTSKNQFSLQLTSMTPEDTAVYYCAREGVTMGPGAFDIWGQGTMVTVSS
VL: QSALTQPPSVSGSPGQSVTISCTGSSSDVGHYNRVSWYQQSPGTAPKLMIYDVSNRPSGAFSRFSGSRSGNTASLTISGLQPEDEADYYCSSHRTGYTVEVFGTGTKVTVLG
As to B9, the affinity in assay [7], expressed as Kd, was 15 nM.
